For this assay, the target named is PTH receptor ("PTHIR"). Nature of the assay: cell-based or functional assay.

B1: PTH(1-84) (ligand)
chain: SVSEIQLMHNLGKHLNSMERVEWLRKKLQDVHNFVALGAPLAPRDAGSQRPRKKEDNVLVESHEKSLGEADKADVNVLTKAKSQ
As for B1, the “cAMP potency (EC50)” value stood at 0.24 nM.

Source of the values: US20250257112A1 (SHIRE NPS PHARMACEUTICALS, published 2025).
